Laboratory results reported in patent publication US9243231B2, “Mutant cytochrome P450 2B6 proteins and uses thereof” (Institut National de la Santé et de la Recherche Médicale …, priority 2011, dated 2016).
“Also recorded” adds a separate entry of the source.

What was measured:
[1] = test system: TC1-Luc2 mouse pulmonary tumour cells; test: In vivo cytotoxicity assay, subcutaneous TC1 tumours in mice treated with CPA; details: CPA 140 mg/kg i.p., C57Bl6 mice, FIG. 14
Experimental: To test the capacity of the triple mutant to enhance the response to CPA in vivo, a mouse model was used. Mouse pulmonary tumour cells (TC1-Luc2) were infected with a lentivirus vector carrying the CYP2B6TM-RED construct and injected subcutaneously into C57Bl6 mice. As a control, uninfected TC1 cells-were injected. TC1-Luc2 cells express luciferase, permitting tumour size to be monitored via bioluminescence.
In initial experiments, 10 mice were injected with CYP2B6TM-RED-TC1 cells and 10 were injected with uninfected TC1 cells. Tumour growth was monitored, and when the tumour size reached approximately 400 mm^3 half of the mice were treated with CPA via intraperitoneal injection at 140 mg/kg. untreated mice were sacrificed when tumour volume reached around 1500 mm^3.

[2] = CPA 4-hydroxylase activity in yeast microsomes; type: biochemical; details: for Vmax of CPA-4' hydroxylation / Km / CPA hydroxylase activity Vmax: yeast microsomes; for Vmax of CPA-4' hydroxylation / Km: FIG. 9; for Km: read-out: Km of CPA-4' hydroxylation; for CPA hydroxylase activity Vmax: Table 1
Source text: CYP2B6 wt or CYP2B6TM alone or in fusion with RED were expressed in the MR) yeast strain, in which yeast NADPH cytochrome P450 reductase was constitutively expressed. The pYeDP60 plasmids were introduced into intact yeast cells based on a refined lithium acetate-mediated protocol as described in Truan et al, 1993, above. Yeast culture conditions were as described in Bellamine A, Gautier J C, Urban P, Pompon D (1994): Chimeras of the human cytochrome P450 1A family produced in yeast. Accumulation in microsomal membranes, enzyme kinetics and stability. Eur J Biochem 225:1005-13. Yeast microsomes were prepared based on the mechanical disruption method using glass beads as described in Bellamine A, Gautier J C, Urban P, Pompon D. (1994): Chimeras of the human cytochrome P450 1A family produced in yeast. Accumulation in microsomal membranes, enzyme kinetics and stability. Eur J Biochem 225:1005-13. The fluorometric determination of yeast microsomal CPA 4-hydroxylase was adapted from a technique described previously (Roy P, Yu […]. (1999): […] Drug Metab Dispos 27:655-66) for a 96-well microplate with several modifications. Incubations were carried out for 1 h at 28° C. in a total volume of 200 μl and included 100 mM sodium phosphate buffer, pH 7.4, 1 mM EDTA, 10 pmol of CYP2B6 wt or CYP2B6TM or CYP2B6TM-RED with different linkers (microsomal P450 content was spectrally determined by the method of Schoene […], von Oldershausen H F. (1972): Determination of drug metabolizing enzymes in needle biopsies of human liver. Eur J Clin Pharmacol 4:65-73) and 10 mM CPA. Reactions were initiated by adding the NADPH-generating system and stopped by the addition of 200 μl of 10% trichloroacetic acid. After centrifugation at 13,000 g and 4° C. for 15 min to pellet the proteins, 300 μl of the supernatant was transferred to a clean test tube containing 160 μl of the fluorescence mixture (6 mg of 3-aminophenol and 6 mg of hydroxylamine hydrochloride freshly dissolved in 1 ml of 1N HCl). […] After cooling to room temperature, fluorescence reading were performed on a Bio-tek FL600 microplate fluorescence reader (excitation at 350 nm and emission at 515 nm). […] Data were analyzed using Prism software (Graph-Pad Software, Inc., San Diego, Calif.) to calculate kinetic parameters (Km, Vmax), with Vmax values expressed as moles of product formed per minute, normalized to the moles of P450 included in each reaction (turnover number expressed as minutes^-1). Data shown were based on duplicate determinations for each data point.

[3] = double mutant, earlier publication; cited from earlier work

Molecule | Vmax of CPA-4' hydroxylation [2] [min⁻¹] | Km [2] [µM] | CPA hydroxylase activity Vmax [2] | other results
O=P1(N(CCCl)CCCl)NCCCO1 (stereo not drawn) [CPA, cyclophosphamide] |  |  |  | change in tumour volume after CPA, uninfected TC1 tumours [1]: only a modest effect on the uninfected tumour cells and did not produce an overall reduction in tumour volume; also recorded: slowed this rapid increase in uninfected tumour cells but obtained no reduction in overall tumour size
CYP2B6TM: human CYP2B6 triple mutant with substitutions I114V, L199M and V477W (SEQ ID No 1) (protein, listed as Homo sapiens) MELSVLLFLALLTGLLLLLVQRHPNTHDRLPPGPRPLPLLGNLLQMDRRGLLKSFLRFREKYGDVFTVHLGPRPVVMLCGVEAIREALVDKAEAFSGRGKIAMVDPFFRGYGVVFANGNRWKVLRRFSVTTMRDFGMGKRSVEERIQEEAQCLIEELRKSKGALMDPTFLFQSITANIICSIVFGKRFHYQDQEFLKMMNLFYQTFSLISSVFGQLFELFSGFLKYFPGAHRQVYKNLQEINAYIGHSVEKHRETLDPSAPKDLIDTYLLHMEKEKSNAHSEFSHQNLNLNTLSLFFAGTETTSTTLRYGFLLMLKYPHVAERVYREIEQVIGPHRPPELHDRAKMPYTEAVIYEIQRFSDLLPMGVPHIVTQHTSFRGYIIPKDTEVFLILSTALHDPHYFEKPDAFNPDHFLDANGALKKTEAFIPFSLGKRICLGEGIARAELFLFFTTILQNFSMASPVAPEDIDLTPQECGWGKIPPTYQIRFLPR | 107.5 ± 3.4 | 510 ± 80 | 105.5 nmol 4OH-CPA/min/nmol CYP2B6 | affinity for CPA relative to wild-type enzyme ([2]; greater than wild-type): 8 times; Vmax compared with wild-type enzyme ([2]; in words): retaining the same Vmax; efficiency at metabolising CPA into cytotoxic metabolite relative to wild-type ([2]; more efficient than wild-type protein): 10 times; change in tumour volume after CPA, tumours expressing CYP2B6TM-RED [1]: dramatic reductions in tumour size
CYP2B6wt: wild-type human cytochrome P450 2B6, without reductase (protein, UniProt P20813 1-491, looked up) Cytochrome P450 2B6: MELSVLLFLALLTGLLLLLVQRHPNTHDRLPPGPRPLPLLGNLLQMDRRGLLKSFLRFREKYGDVFTVHLGPRPVVMLCGVEAIREALVDKAEAFSGRGKIAMVDPFFRGYGVIFANGNRWKVLRRFSVTTMRDFGMGKRSVEERIQEEAQCLIEELRKSKGALMDPTFLFQSITANIICSIVFGKRFHYQDQEFLKMLNLFYQTFSLISSVFGQLFELFSGFLKYFPGAHRQVYKNLQEINAYIGHSVEKHRETLDPSAPKDLIDTYLLHMEKEKSNAHSEFSHQNLNLNTLSLFFAGTETTSTTLRYGFLLMLKYPHVAERVYREIEQVIGPHRPPELHDRAKMPYTEAVIYEIQRFSDLLPMGVPHIVTQHTSFRGYIIPKDTEVFLILSTALHDPHYFEKPDAFNPDHFLDANGALKKTEAFIPFSLGKRICLGEGIARAELFLFFTTILQNFSMASPVAPEDIDLTPQECGVGKIPPTYQIRFLPR | 107.3 ± 3.74 | 4330 ± 500 | 62.5 nmol 4OH-CPA/min/nmol CYP2B6 | 
I114V/V477W: previously published CYP2B6 double active site mutant (Nguyen et al 2008) (protein, UniProt P20813 1-491, looked up, variant I114V V477W) Cytochrome P450 2B6: MELSVLLFLALLTGLLLLLVQRHPNTHDRLPPGPRPLPLLGNLLQMDRRGLLKSFLRFREKYGDVFTVHLGPRPVVMLCGVEAIREALVDKAEAFSGRGKIAMVDPFFRGYGVVFANGNRWKVLRRFSVTTMRDFGMGKRSVEERIQEEAQCLIEELRKSKGALMDPTFLFQSITANIICSIVFGKRFHYQDQEFLKMLNLFYQTFSLISSVFGQLFELFSGFLKYFPGAHRQVYKNLQEINAYIGHSVEKHRETLDPSAPKDLIDTYLLHMEKEKSNAHSEFSHQNLNLNTLSLFFAGTETTSTTLRYGFLLMLKYPHVAERVYREIEQVIGPHRPPELHDRAKMPYTEAVIYEIQRFSDLLPMGVPHIVTQHTSFRGYIIPKDTEVFLILSTALHDPHYFEKPDAFNPDHFLDANGALKKTEAFIPFSLGKRICLGEGIARAELFLFFTTILQNFSMASPVAPEDIDLTPQECGWGKIPPTYQIRFLPR |  |  |  | CPA-4-hydroxylation efficiency compared to wild-type enzyme [3]: four-fold increase
